{"source": "patent US20110034399A1", "about": "“Liquid and Freeze Dried Formulations” (IPSEN PHARMA S.A.S., priority 2008, published 2011)", "experiment": "Formulation stability of lyophilisate form (HPLC content and purity, pH) on storage", "assay_type": "physicochemical", "experimental": "Stabilities measurements were performed by means of High Performance Liquid Chromatographic (HPLC) method. The HPLC system a HPLC Waters Alliance 2695 completed by detection system 2487 Dual λ Absorbance Detector, the column used was a C18, 250×4.6 mm. All details concerning instrumental conditions are gathered in table 6. Elution conditions are gathered in table 7. Two pharmaceutical forms were studied in parallel for stability assays over six months at +5° C. and +25° C./60% RH (relative humidity) and +40° C./75% RH. Measurements were carried out in parallel with (in either wfi, or 5% dextrose as solvent) and a lyophilisate (drug substance on its own) or as second variant of formulations with an additional bulking agents such as mannitol, glycine and trehalose) in WFI. […] C (% initial) represents the content expressed in percentage at the moment T with regard to the content at the moment Tzero. […] In table 7 are gathered the elution program, the ratio of each eluant (mobile phase) used for measurement of formulation stabilities. […] Thereafter 20 ml of acetic acid 0.1 N were added under shaking by means of a vortex and if required additionally dissolved in ultrasonic bath in order to obtain a total dissolution. Weight of brut BI[…] 760 was calculated by means of the following relation: […]"}
{"molecule": "CCCN1CC(CSCC(=O)N[C@H](CCCCNC(=O)CSC[C@@H]2C[C@@H]3c4cccc5[nH]cc(c45)C[C@H]3N(CCC)C2)C(=O)N[C@H]2CSSC[C@@H](C(=O)N[C@H](C(N)=O)[C@@H](C)O)NC(=O)[C@H](CC)NC(=O)[C@H](CCCCN)NC(=O)[C@@H](Cc3c[nH]c4ccccc34)NC(=O)[C@H](Cc3ccc(O)cc3)NC2=O)C[C@@H]2c3cccc4[nH]cc(c34)C[C@H]21", "note": "(stereo partly drawn) [BIM23A760, Dop2-DLys(Dop2)-c(Cys-Tyr-DTrp-Lys-Abu-Cys)-Thr-NH2]", "values": [{"measurement": "C (% initial)", "setting": "+5° C., T3 Months", "value": 103.6, "unit": "% initial"}, {"measurement": "P (% a/a)", "setting": "+5° C., T3 Months", "value": 96.10, "unit": "% a/a"}, {"measurement": "pH", "setting": "+5° C., T3 Months", "value": 6.64}, {"measurement": "C (% initial)", "setting": "+5° C., T6 Months", "value": 73.0, "unit": "% initial"}, {"measurement": "P (% a/a)", "setting": "+5° C., T6 Months", "value": 96.80, "unit": "% a/a"}, {"measurement": "pH", "setting": "+5° C., T6 Months", "value": 5.81}, {"measurement": "C (% initial)", "setting": "+25° C./60% RH, T0", "value": 100, "unit": "% initial"}, {"measurement": "P (% a/a)", "setting": "+25° C./60% RH, T0", "value": 95.90, "unit": "% a/a"}, {"measurement": "pH", "setting": "+25° C./60% RH, T0", "value": 6.8}, {"measurement": "C (% initial)", "setting": "+25° C./60% RH, T3 Months", "value": 98.8, "unit": "% initial"}, {"measurement": "P (% a/a)", "setting": "+25° C./60% RH, T3 Months", "value": 93.70, "unit": "% a/a"}, {"measurement": "pH", "setting": "+25° C./60% RH, T6 Months", "value": 6.63}, {"measurement": "C (% initial)", "setting": "+40° C./75% RH, T1 Month", "value": 52.0, "unit": "% initial"}, {"measurement": "P (% a/a)", "setting": "+40° C./75% RH, T1 Month", "value": 95.9, "unit": "% a/a"}, {"measurement": "C (% initial)", "setting": "+40° C./75% RH, T3 Months", "value": 29.0, "unit": "% initial"}, {"measurement": "P (% a/a)", "setting": "+40° C./75% RH, T3 Months", "value": 95.5, "unit": "% a/a"}, {"measurement": "pH", "setting": "+40° C./75% RH, T3 Months", "value": 5.60}, {"measurement": "pH", "setting": "+40° C./75% RH, T6 Months", "value": 5.62}]}
